The source of these data is patent publication US20170275375A1 (published 2017).

Assay [1] concerns the target T1, human PD1 expressed on cells (activated Jurkat T cells; SpESFX-2D1 transfectants) (human, UniProt Q15116 25-288).
T1 construct: whole, on cells; Endogenous on stimulated Jurkat cells; transfected human PD1 on SpESFX-2D1; also called CD279; 2D1 cells
Put plainly: binding to 2D1 cells transfected with human PD1.

The target in assay [2] is T2, recombinant human PD1-His (human, UniProt Q15116 25-167, limits assumed).
T2 construct: also called recombinant PD1-His; not shown: His tag
T2 sequence (Q15116 25-167 limits assumed): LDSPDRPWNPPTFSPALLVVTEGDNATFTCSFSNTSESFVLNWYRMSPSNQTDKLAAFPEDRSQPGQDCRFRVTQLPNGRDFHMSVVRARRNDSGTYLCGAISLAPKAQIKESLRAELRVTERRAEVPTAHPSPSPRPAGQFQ
Put plainly: in vitro binding to recombinant human PD1-His (FIG. 32).

T1 sequence (Q15116 25-288): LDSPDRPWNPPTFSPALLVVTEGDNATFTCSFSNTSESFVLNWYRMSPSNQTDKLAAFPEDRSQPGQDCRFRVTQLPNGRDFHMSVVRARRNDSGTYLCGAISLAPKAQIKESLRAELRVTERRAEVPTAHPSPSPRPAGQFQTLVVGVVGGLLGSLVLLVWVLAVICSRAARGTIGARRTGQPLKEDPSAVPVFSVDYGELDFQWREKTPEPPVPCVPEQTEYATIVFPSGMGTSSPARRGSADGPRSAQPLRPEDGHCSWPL

B1: humanized anti-PD1 antibody version 5 (V5) (antibody, V domains shown)
VH: QVQLVESGGGLVKPGGSLRLSCAASGFAFSSNDMSWVRQAPGKGLEWVATISGGGINTYYPDSVKGRFTISRDNAKNTLYLQMNSLRAEDTAVYYCARRSNYAWFAYWGQGTPVTVSA
VL: DIQLTQSPASLAVSLGQRATISCRASESVDTYGISFMNWFQQKPGQPPKLLISPNQGSGVPARFSGSGSGTDFTLTINSLEAEDTAVYFCQQSKEVPWTFGGGTKLEIK
notes: V5 is V4 with a putative light-chain N-glycosylation site removed; also called hPD1 v5; hPD1 (v5)
Usually EC50 stands for the concentration that produces a half-maximal response. In assay [1], B1 showed an EC50 of 0.568 µg/mL.

B2: 2G9 (IMMU-cPD1) (antibody, V domains shown)
VH: VKLQESGGGLVKPGGSLKLSCAASGFAFSSNDMSWVRQTPEKRLEWVATISGGGINTYYPDSVKGRFTISRDNARNTLDLQMSSLRSEDTALYYCARRSNYAWFAYWGQGTPVTVSA
VL: not shown
notes: also called chimeric anti-PD1; chimeric version of 5G9
Consider B2, for which the EC50 in assay [1] was determined as 0.168 µg/mL; in assay [2], 0.072 nM.
